According to article PMC3479198 (Nucleic Acids Research, 2012):

Biological target: the molecule itself
Test: electron microscopy

B1: Helicobacter pylori DnaA protein (natural protein, H. pylori, UniProt O26057 1-457, looked up)
chain: MDTNNNIEKEILALVKQNPKVSLIEYENYFSQLKYNPNASKSDIAFFYAPNQVLCTTITAKYGALLKEILSQNKVGMHLAHSVDVRIEVAPKIQINAQSNINYKAIKTSVKDSYTFENFVVGSCNNTVYEIAKKVAQSDTPPYNPVLFYGGTGLGKTHILNAIGNHALEKHKKVVLVTSEDFLTDFLKHLDNKTMDSFKAKYRHCDFFLLDDAQFLQGKPKLEEEFFHTFNELHANSKQIVLISDRSPKNIAGLEDRLKSRFEWGITAKVMPPDLETKLSIVKQKCQLNQITLPEEVMEYIAQHISDNIRQMEGAIIKISVNANLMNASIDLNLAKTVLEDLQKDHAEGSSLENILLAVAQSLNLKSSEIKVSSRQKNVALARKLVVYFARLYTPNPTLSLAQFLDLKDHSSISKMYSGVKKMLEEEKSPFVLSLREEIKNRLNELNDKKTAFNSSE
- binding result: binds
